Experimental findings from patent US20080227696A1 (BIOSURFACE ENGINEERING TECHNOLOGIES, published 2008) are described below.

This assay has as its target T1, Soluble PDGF receptor, recombinant chimera of human PDGF-R-alpha (R&D Systems) (human, UniProt P16234 24-524).
T1 construct: Bought from R&D Systems; immobilized on a CM5 chip by EDC/NHS; not shown: called a recombinant chimera
As to the kind of experiment: SPR, BIAcore 2000, receptor immobilized on CM5 chip, peptide as analyte, 1:1 global fit. As for the experimental part:
Surface Plasmon Resonance (SPR) Analysis. Real-time biomolecular interactions were analyzed with a BIAcore 2000 system (Biacore Inc., Piscataway, N.J.). Soluble PDGF receptor, recombinant chimera of human PDGF-R-alpha and PSGF-R-beta (R &D Systems, Minneapolis, Minn.), was immobilized on research grade CM5 chips (Biacore Inc., Piscataway, N.J.). Following activation with EDC/NHS, the receptors were immobilized on activated CM5 chips. To obtain kinetic data, different concentrations of analytes in HBS-EP buffer were injected over the sensor chip at a flow rate of 50 μl/min. Peptide binding was measured in resonance units (RU). At the end of each sample injection (120 s) buffer was passed over the sensor surface to monitor the dissociation phase. Reference responses from blank flow cells were subtracted from receptor-containing flow cells for each analyte injection and the kinetic parameters for each interaction were determined by globally fitting the experimental data to a 1:1 interaction with BIAEVALUATION software (Biacore Inc., Piscataway, N.J.). The association rate constant and the dissociation rate constant (kₐ and kd, respectively), and the equilibrium dissociation constant (KD) are presented in the Table 4 for the receptors and PBA2-1.

Where no end group is shown, it is not given here. [ ]: non-standard residue; d: D form. Ahx = NCCCCCC(=O)O

T1 sequence (P16234 24-524, change not shown): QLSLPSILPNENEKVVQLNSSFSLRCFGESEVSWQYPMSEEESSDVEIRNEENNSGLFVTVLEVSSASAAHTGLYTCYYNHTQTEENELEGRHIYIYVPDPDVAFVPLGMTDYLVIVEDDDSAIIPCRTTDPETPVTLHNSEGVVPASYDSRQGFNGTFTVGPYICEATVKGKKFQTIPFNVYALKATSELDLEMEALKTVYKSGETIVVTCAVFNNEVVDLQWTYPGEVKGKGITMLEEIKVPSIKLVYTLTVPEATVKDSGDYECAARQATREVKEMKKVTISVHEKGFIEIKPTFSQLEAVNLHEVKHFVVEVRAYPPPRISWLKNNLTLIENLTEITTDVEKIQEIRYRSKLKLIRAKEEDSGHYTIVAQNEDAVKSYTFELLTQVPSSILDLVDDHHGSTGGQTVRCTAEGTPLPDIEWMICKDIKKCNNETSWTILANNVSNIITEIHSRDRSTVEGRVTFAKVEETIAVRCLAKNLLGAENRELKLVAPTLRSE

B1: PBA2-1 (peptide)
chain 1: VRKIEIVRKKK[Ahx][Ahx][Ahx]RKRKLERIAR-NH2
chain 2: VRKIEIVRKK
modifications: also: chain 2 bound through its C-terminus to the side chain of Lys11 of chain 1 (branched homodimer), bond at chain A 11 to a chain's C-terminus
notes: also called mimetic of PDGF; PDGF analog PBA2-1
In the case of B1, the equilibrium dissociation constant (Kd) amounted to 23.3 nM.
